Results from patent publication US20040121956A1 (PHARMACIA AND UPJOHN, published 2004).
Where no end group is shown, it is not given here.

T1: DmGPCR1 (PnuFlyPep34651) (Drosophila melanogaster)
T1 chain: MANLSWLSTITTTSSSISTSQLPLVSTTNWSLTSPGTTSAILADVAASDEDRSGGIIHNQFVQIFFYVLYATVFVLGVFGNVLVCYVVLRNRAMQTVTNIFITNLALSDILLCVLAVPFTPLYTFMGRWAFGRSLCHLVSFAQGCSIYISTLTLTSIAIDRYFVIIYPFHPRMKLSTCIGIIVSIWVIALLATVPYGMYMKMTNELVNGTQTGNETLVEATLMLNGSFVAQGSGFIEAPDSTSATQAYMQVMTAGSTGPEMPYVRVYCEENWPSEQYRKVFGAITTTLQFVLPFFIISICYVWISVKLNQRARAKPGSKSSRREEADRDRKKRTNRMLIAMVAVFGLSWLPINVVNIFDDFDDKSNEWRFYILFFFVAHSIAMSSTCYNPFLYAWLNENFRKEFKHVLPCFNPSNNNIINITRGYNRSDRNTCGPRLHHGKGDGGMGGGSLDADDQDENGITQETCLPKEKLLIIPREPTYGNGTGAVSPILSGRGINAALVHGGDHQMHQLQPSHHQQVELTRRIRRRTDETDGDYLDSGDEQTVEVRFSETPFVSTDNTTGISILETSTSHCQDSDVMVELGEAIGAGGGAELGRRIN

T2: DmGPCR6a (M811490) (Drosophila melanogaster, UniProt P25931 1-464)
T2 sequence (looked up): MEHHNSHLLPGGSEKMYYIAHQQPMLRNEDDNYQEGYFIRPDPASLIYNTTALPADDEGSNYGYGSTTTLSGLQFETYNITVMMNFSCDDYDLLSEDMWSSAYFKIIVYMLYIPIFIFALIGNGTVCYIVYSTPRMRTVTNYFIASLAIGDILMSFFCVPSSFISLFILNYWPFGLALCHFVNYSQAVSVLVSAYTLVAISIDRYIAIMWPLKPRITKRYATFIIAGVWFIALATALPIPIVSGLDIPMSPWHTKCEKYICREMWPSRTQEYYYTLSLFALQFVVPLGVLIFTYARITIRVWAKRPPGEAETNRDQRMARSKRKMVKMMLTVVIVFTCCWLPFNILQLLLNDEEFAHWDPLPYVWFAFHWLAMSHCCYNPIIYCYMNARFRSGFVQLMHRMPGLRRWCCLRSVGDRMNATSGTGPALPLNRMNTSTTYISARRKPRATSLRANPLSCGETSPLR


What was measured:
[1] = target: T1, DmGPCR1 (PnuFlyPep34651); experiment: cell-based or functional assay
[2] = target: T2, DmGPCR6a (M811490); experiment: cell-based or functional assay

| EC50, FLIPR assay [1] | GTPγS binding, fold increase, 5 µM NPFF [2] | Binder |
| --- | --- | --- |
| 0.1 to 0.2 µM |  | ARGPQLRLRF-NH2 [ARGPQLRLRF-NH2] |
|  | 4 fold | FLFQPQRF-NH2 [human NPFF (FLFQPQRF-NH2)] |
